According to US20070141060A1, “Hmgb1 protein inhibitors for the regulation of smooth muscle cells and endothelial cells profileration” (BIO3 RESEARCH SRL, priority 2004, published 2007):

Tests used:
Format in all cases: cell-based
[1] = tested on: 3T3 mouse fibroblasts; assay: Proliferation of 3T3 mouse fibroblasts in similar conditions; conditions: data not shown
[2] = tested on: bovine smooth muscle; assay: Proliferation of bovine smooth muscle cells (cell counting)
Procedure: (§1) Bovine aorta endothelial cells or bovine smooth muscle at an early passage were cultured in DMEM+10% FCS. Cells were then kept for 16 hours in DMEM in absence of FCS, and plated in 6 cm wells of 6-well plates (about 50 000 cells per well). Cells were then cultured, in triplicate, in the presence of DMEM alone, DMEM+10% FCS, or DMEM+different concentrations of HMGB1. At 24 hours intervals cells were counted under the microscope.

[3] = tested on: Bovine aorta endothelial cells; assay: Proliferation of bovine aorta endothelial cells (cell counting); conditions: DMEM + different concentrations of HMGB1, no FCS; cells counted at 24 hours intervals; FIG. 1
Procedure: as §1

B1: HMGB1: HMGB1 protein, released after mechanical injury of cells; induces smooth muscle cell and endothelial cell proliferation (protein, UniProt P09429 1-215, looked up)
High mobility group protein B1: MGKGDPKKPRGKMSSYAFFVQTCREEHKKKHPDASVNFSEFSKKCSERWKTMSAKEKGKFEDMAKADKARYEREMKTYIPPKGETKKKFKDPNAPKRPPSAFFLFCSEYRPKIKGEHPGLSIGDVAKKLGEMWNNTAADDKQPYEKKAAKLKEKYEKDIAAYRAKGKPDAAKKGVVKAEKSKKKKEEEEDEEDEEDEEEEEDEEDEDEEEDDDDE
- proliferation of 3T3 mouse fibroblasts [1]: does not cause the proliferation
- cell division / proliferation of BSMC ([2]; DMEM + different concentrations of HMGB1, no FCS, single addition, cells counted at 24 hours intervals, FIG. 1): a couple of rounds of division in BSMC, followed by quiescence
- cell proliferation of BSMC on repeated addition ([2]; repeated addition of HMGB1 every 24 hours, data not shown): keep proliferating
- cell division / proliferation of BAEC [3]: keep dividing
